{"source": "patent US20120277142A1", "about": "(HANALL BIOPHARMA, published 2012)", "binders": {"B1": {"name": "TNFRI126-A2 (receptor)", "chain": "MDSVCPQGKYIHPQNNSICCTKCHKGTYLYNDCPGPGQDTDCRECESGSFTAIENFLPACLSCSKCRKEMGQVEISSCTVDRDTVCGCRKNQYRHYWSENLFQCFNCSLCLNGTVHLSCQEKQNTVC", "notes": "Met-TNFRI126 mutant made in E. coli"}, "B2": {"name": "TNFRI126-A1 (receptor)", "chain": "MDSVCPQGKYIHPQNNSICCTKCHKGTYLYNDCPGPGQDTDCRECESGSFTASENFLPACLSCSKCRKEMGQVEISSCTVDRDTVCGCRKNQYRHYWSENLFQCFNCSLCLNGTVHLSCQEKQNTVC", "notes": "as for B1"}, "B3": {"name": "TNFRI126-A3 (receptor)", "chain": "MDSVCPQGKYIHPQNNSICCTKCHKGTYLYNDCPGPGQDTDCRECESGSFTAGENFLPACLSCSKCRKEMGQVEISSCTVDRDTVCGCRKNQYRHYWSENLFQCFNCSLCLNGTVHLSCQEKQNTVC", "notes": "as for B1"}, "B4": {"name": "TNFRI126-A4 (receptor)", "chain": "MDSVCPQGKYIHPQNNSICCTKCHKGTYLYNDCPGPGQDTDCRECESGSFTAAENFLPACLSCSKCRKEMGQVEISSCTVDRDTVCGCRKNQYRHYWSENLFQCFNCSLCLNGTVHLSCQEKQNTVC", "notes": "as for B1"}, "B5": {"name": "TNFRI126-A5 (receptor)", "chain": "MDSVCPQGKYIHPQNNSICCTKCHKGTYLYNDCPGPGQDTDCRECESGSFTAVENFLPACLSCSKCRKEMGQVEISSCTVDRDTVCGCRKNQYRHYWSENLFQCFNCSLCLNGTVHLSCQEKQNTVC", "notes": "as for B1"}, "B6": {"name": "TNFRI126-A6 (receptor)", "chain": "MDSVCPQGKYIHPQNNSICCTKCHKGTYLYNDCPGPGQDTDCRECESGSFTALENFLPACLSCSKCRKEMGQVEISSCTVDRDTVCGCRKNQYRHYWSENLFQCFNCSLCLNGTVHLSCQEKQNTVC", "notes": "as for B1"}, "B7": {"name": "TNFRI126-A7 (receptor)", "chain": "MDSVCPQGKYIHPQNNSICCTKCHKGTYLYNDCPGPGQDTDCRECESGSFTAPENFLPACLSCSKCRKEMGQVEISSCTVDRDTVCGCRKNQYRHYWSENLFQCFNCSLCLNGTVHLSCQEKQNTVC", "notes": "as for B1"}, "B8": {"name": "TNFRI126-A8 (receptor)", "chain": "MDSVCPQGKYIHPQNNSICCTKCHKGTYLYNDCPGPGQDTDCRECESGSFTAFENFLPACLSCSKCRKEMGQVEISSCTVDRDTVCGCRKNQYRHYWSENLFQCFNCSLCLNGTVHLSCQEKQNTVC", "notes": "as for B1"}, "B9": {"name": "TNFRI126-A9 (receptor)", "chain": "MDSVCPQGKYIHPQNNSICCTKCHKGTYLYNDCPGPGQDTDCRECESGSFTAMENFLPACLSCSKCRKEMGQVEISSCTVDRDTVCGCRKNQYRHYWSENLFQCFNCSLCLNGTVHLSCQEKQNTVC", "notes": "as for B1"}, "B10": {"name": "TNFRI126-A10 (receptor)", "chain": "MDSVCPQGKYIHPQNNSICCTKCHKGTYLYNDCPGPGQDTDCRECESGSFTAWENFLPACLSCSKCRKEMGQVEISSCTVDRDTVCGCRKNQYRHYWSENLFQCFNCSLCLNGTVHLSCQEKQNTVC", "notes": "as for B1"}, "B11": {"name": "TNFRI171-S53 (receptor)", "chain": "MDSVCPQGKYIHPQNNSICCTKCHKGTYVYNDCPGPGQDTDCRECESGSFTAIENFLPACLSCSKCRKEMGQVEISSCTVDRDTVCGCRKNQYRHYWSENLFQCFNCSLCLNGTVHLSCQEQQNTVCTCHAGFFLRENECVSCSNCKKSLECTKLCLPQIENVKGTEDSGTT", "notes": "Met-TNFRI171 superlead mutant made in E. coli"}, "B12": {"name": "TNFRI171-S54 (receptor)", "chain": "MDSVCPQGKYIHPQNNSICCTKCHKGTYVYNDCPGPGQDTDCRECESGSFTAIENFLPACLSCSKCRKEMGQVEISSCTVDRDTVCGCRKNQYRHYWSENLFQCFNCSLCLNGTVHLSCQENQNTVCTCHAGFFLRENECVSCSNCKKSLECTKLCLPQIENVKGTEDSGTT", "notes": "as for B11"}, "B13": {"name": "TNFRI171-S55 (receptor)", "chain": "MDSVCPQGKYIHPQNNSICCTKCHKGTYVYNDCPGPGQDTDCRECESGSFTAIENFLPACLSCSKCRKEMGQVEISSCTVDRDTVCGCRKNQYRHYWSENLFQCFNCSLCLNGTVHLSCQEKQNTVCTCHAGFFLRENECVSCSNCKKSLECTKLCLPQIENVKGTENSGTT", "notes": "as for B11"}, "B14": {"name": "TNFRI171-S56 (receptor)", "chain": "MDSVCPQGKYIHPQNNSICCTKCHKGTYVYNDCPGPGQDTDCRECESGSFTAMENFLPACLSCSKCRKEMGQVEISSCTVDRDTVCGCRKNQYRHYWSENLFQCFNCSLCLNGTVHLSCQEQQNTVCTCHAGFFLRENECVSCSNCKKSLECTKLCLPQIENVKGTEDSGTT", "notes": "as for B11"}, "B15": {"name": "TNFRI171-S57 (receptor)", "chain": "MDSVCPQGKYIHPQNNSICCTKCHKGTYVYNDCPGPGQDTDCRECESGSFTAMENFLPACLSCSKCRKEMGQVEISSCTVDRDTVCGCRKNQYRHYWSENLFQCFNCSLCLNGTVHLSCQENQNTVCTCHAGFFLRENECVSCSNCKKSLECTKLCLPQIENVKGTEDSGTT", "notes": "as for B11"}, "B16": {"name": "TNFRI171-S58 (receptor)", "chain": "MDSVCPQGKYIHPQNNSICCTKCHKGTYVYNDCPGPGQDTDCRECESGSFTAMENFLPACLSCSKCRKEMGQVEISSCTVDRDTVCGCRKNQYRHYWSENLFQCFNCSLCLNGTVHLSCQEKQNTVCTCHAGFFLRENECVSCSNCKKSLECTKLCLPQIENVKGTENSGTT", "notes": "as for B11"}, "B17": {"name": "TNFRI171-S59 (receptor)", "chain": "MDSVCPQGKYIHPQNNSICCTKCHKGTYVYNDCPGPGQDTDCRECESGSFTAHENFLPACLSCSKCRKEMGQVEISSCTVDRDTVCGCRKNQYRHYWSENLFQCFNCSLCLNGTVHLSCQEQQNTVCTCHAGFFLRENECVSCSNCKKSLECTKLCLPQIENVKGTEDSGTT", "notes": "as for B11"}, "B18": {"name": "TNFRI171-S60 (receptor)", "chain": "MDSVCPQGKYIHPQNNSICCTKCHKGTYVYNDCPGPGQDTDCRECESGSFTAHENFLPACLSCSKCRKEMGQVEISSCTVDRDTVCGCRKNQYRHYWSENLFQCFNCSLCLNGTVHLSCQENQNTVCTCHAGFFLRENECVSCSNCKKSLECTKLCLPQIENVKGTEDSGTT", "notes": "as for B11"}, "B19": {"name": "TNFRI171-S61 (receptor)", "chain": "MDSVCPQGKYIHPQNNSICCTKCHKGTYVYNDCPGPGQDTDCRECESGSFTAHENFLPACLSCSKCRKEMGQVEISSCTVDRDTVCGCRKNQYRHYWSENLFQCFNCSLCLNGTVHLSCQEKQNTVCTCHAGFFLRENECVSCSNCKKSLECTKLCLPQIENVKGTENSGTT", "notes": "as for B11"}, "B20": {"name": "TNFRI171-S62 (receptor)", "chain": "MDSVCPQGKYIHPQNNSICCTKCHKGTYVYNDCPGPGQDTDCRECESGSFTAIENFLPGCLSCSKCRKEMGQVEISSCTVDRDTVCGCRKNQYRHYWSENLFQCFNCSLCLNGTVHLSCQEQQNTVCTCHAGFFLRENECVSCSNCKKSLECTKLCLPQIENVKGTEDSGTT", "notes": "as for B11"}, "B21": {"name": "TNFRI171-S63 (receptor)", "chain": "MDSVCPQGKYIHPQNNSICCTKCHKGTYVYNDCPGPGQDTDCRECESGSFTAMENFLPGCLSCSKCRKEMGQVEISSCTVDRDTVCGCRKNQYRHYWSENLFQCFNCSLCLNGTVHLSCQENQNTVCTCHAGFFLRENECVSCSNCKKSLECTKLCLPQIENVKGTEDSGTT", "notes": "Met-TNFRI171 superlead mutant made in E. coli; also called TNFRI-S63"}}}
{"molecular_target": "T1, TNF-α (UniProt P01375 77-233, limits assumed)", "T1 construct": "also called tumor necrosis factor; ligand", "test": "competition ELISA: sample vs plate-bound TNFRI190 for TNF-α, from IC50, relative to wild-type TNFRI126", "method": "(§1) Each well was washed three times with 300 μL of washing buffer (0.05% Tween-20, PBS, pH 7.4) and incubated at room temperature for 2 hours with 300 μL of a blocking buffer (5% skim milk, PBS, pH 7.4). Then, each well was washed as mentioned above. A sample of interest was diluted to concentrations of 500 nM, 125 nM, 31 nM, 7.8 nM, 1.9 nM, 0.48 nM, 0.12 nM, and 0.03 nM in series and loaded in an amount of 100 μL into each well in duplicate. To each well was added 100 μL of 50 ng/ml TNF-α, followed by incubation at room temperature for 2 hours. After the wells were washed with a washing buffer, 100 μg/mL anti-TNF-α antibody solution was diluted 1/1000, added in an amount of 100 μL per each well, and incubated at room temperature for 2 hours. After the plates were washed with a washing buffer, a substrate was added in an amount of 100 μL to each well and reacted at room temperature for 15 min. In each well, 100 μL of the substrate 3,3′,5,5′-tetramethylbenzidine (RnD, Cat. No: DY999) was reacted at room temperature for 15 min, followed by adding 50 μL of 1.0 M sulfuric acid (Samchun Chemical, Cat. No: 52129) to each well to stop the reaction.\nAffinity of Met-TNFRI and Met-TNFRI mutants for TNF-α was determined by measuring an absorbance change with concentration and evaluating IC₅₀ value by measuring an absorbance change with concentration.", "units": {"Affinity (%)": "%"}}
{"binder": "B1", "Affinity (%)": 829}
{"binder": "B2", "Affinity (%)": 324}
{"binder": "B3", "Affinity (%)": 341}
{"binder": "B4", "Affinity (%)": 524}
{"binder": "B5", "Affinity (%)": 712}
{"binder": "B6", "Affinity (%)": 741}
{"binder": "B7", "Affinity (%)": 600}
{"binder": "B8", "Affinity (%)": 865}
{"binder": "B9", "Affinity (%)": 941}
{"binder": "B10", "Affinity (%)": 800}
{"molecular_target": "T1, TNF-α", "test": "competition ELISA: sample vs plate-bound TNFRI190 for TNF-α, from IC50, relative to wild-type TNFRI171", "method": "as §1\nThe affinity of the Met-TNFRI for TNF-α was assayed using the same procedure as in [Experimental Example 1]", "units": {"Relative Affinity for Ligand (%)": "%"}}
{"binder": "B11", "Relative Affinity for Ligand (%)": 1020}
{"binder": "B12", "Relative Affinity for Ligand (%)": 900}
{"binder": "B13", "Relative Affinity for Ligand (%)": 973}
{"binder": "B14", "Relative Affinity for Ligand (%)": 510}
{"binder": "B15", "Relative Affinity for Ligand (%)": 773}
{"binder": "B16", "Relative Affinity for Ligand (%)": 978}
{"binder": "B17", "Relative Affinity for Ligand (%)": 684}
{"binder": "B18", "Relative Affinity for Ligand (%)": 775}
{"binder": "B19", "Relative Affinity for Ligand (%)": 778}
{"binder": "B20", "Relative Affinity for Ligand (%)": 1200}
{"binder": "B21", "Relative Affinity for Ligand (%)": 1350}
